According to ChEMBL document CHEMBL1212722, “Designer enzymes for glycosphingolipid synthesis by directed evolution” (Nat Chem Biol, 2009):
Residue numbers refer to the chain shown, from its start. In names and notes the source's numbering stands.

Key:
[1] = substrate: CC(=O)N[C@H]1[C@H](O[C@@H]2[C@H](O[C@]3(C(=O)O)C[C@H](O)[C@@H](NC(C)=O)[C@H]([C@@H](O)[C@@H](O)CO)O3)[C@@H](O)[C@H](O[C@H]3[C@H](O)[C@@H](O)[C@@H](F)O[C@@H]3CO)O[C@@H]2CO)O[C@H](CO)[C@H](O)[C@@H]1O[C@@H]1O[C@H](CO)[C@H](O)[C@H](O)[C@H]1O; test: (§1) Activity of Rhodococcus sp. M777 Endoglycoceramidase 2 I183F mutant
[2] = substrate: CCCCCCCCCCCCC/C=C/[C@@H](O)[C@@H](N)CO; test: as §1
[3] = substrate: CC(=O)N[C@H]1[C@H](O[C@@H]2[C@H](O[C@]3(C(=O)O)C[C@H](O)[C@@H](NC(C)=O)[C@H]([C@@H](O)[C@@H](O)CO)O3)[C@@H](O)[C@H](O[C@H]3[C@H](O)[C@@H](O)[C@@H](F)O[C@@H]3CO)O[C@@H]2CO)O[C@H](CO)[C@H](O)[C@@H]1O[C@@H]1O[C@H](CO)[C@H](O)[C@H](O)[C@H]1O; test: (§2) Ratio of Kcat to Km of Activity of Rhodococcus sp. M777 Endoglycoceramidase 2 I183F mutant
[4] = substrate: CCCCCCCCCCCCC/C=C/[C@@H](O)[C@@H](N)CO; test: as §2
[5] = substrate: CC(=O)N[C@H]1[C@H](O[C@@H]2[C@H](O[C@]3(C(=O)O)C[C@H](O)[C@@H](NC(C)=O)[C@H]([C@@H](O)[C@@H](O)CO)O3)[C@@H](O)[C@H](O[C@H]3[C@H](O)[C@@H](O)[C@@H](F)O[C@@H]3CO)O[C@@H]2CO)O[C@H](CO)[C@H](O)[C@@H]1O[C@@H]1O[C@H](CO)[C@H](O)[C@H](O)[C@H]1O; test: (§3) Activity of Rhodococcus sp. M777 Endoglycoceramidase 2 N334S mutant
[6] = substrate: CCCCCCCCCCCCC/C=C/[C@@H](O)[C@@H](N)CO; test: as §3
[7] = substrate: CC(=O)N[C@H]1[C@H](O[C@@H]2[C@H](O[C@]3(C(=O)O)C[C@H](O)[C@@H](NC(C)=O)[C@H]([C@@H](O)[C@@H](O)CO)O3)[C@@H](O)[C@H](O[C@H]3[C@H](O)[C@@H](O)[C@@H](F)O[C@@H]3CO)O[C@@H]2CO)O[C@H](CO)[C@H](O)[C@@H]1O[C@@H]1O[C@H](CO)[C@H](O)[C@H](O)[C@H]1O; test: (§4) Ratio of Kcat to Km of Activity of Rhodococcus sp. M777 Endoglycoceramidase 2 N334S mutant
[8] = substrate: CCCCCCCCCCCCC/C=C/[C@@H](O)[C@@H](N)CO; test: as §4
[9] = substrate: CC(=O)N[C@H]1[C@H](O[C@@H]2[C@H](O[C@]3(C(=O)O)C[C@H](O)[C@@H](NC(C)=O)[C@H]([C@@H](O)[C@@H](O)CO)O3)[C@@H](O)[C@H](O[C@H]3[C@H](O)[C@@H](O)[C@@H](F)O[C@@H]3CO)O[C@@H]2CO)O[C@H](CO)[C@H](O)[C@@H]1O[C@@H]1O[C@H](CO)[C@H](O)[C@H](O)[C@H]1O; test: (§5) Activity of Rhodococcus sp. M777 Endoglycoceramidase 2 D314Y mutant
[10] = substrate: CCCCCCCCCCCCC/C=C/[C@@H](O)[C@@H](N)CO; test: as §5
[11] = substrate: CC(=O)N[C@H]1[C@H](O[C@@H]2[C@H](O[C@]3(C(=O)O)C[C@H](O)[C@@H](NC(C)=O)[C@H]([C@@H](O)[C@@H](O)CO)O3)[C@@H](O)[C@H](O[C@H]3[C@H](O)[C@@H](O)[C@@H](F)O[C@@H]3CO)O[C@@H]2CO)O[C@H](CO)[C@H](O)[C@@H]1O[C@@H]1O[C@H](CO)[C@H](O)[C@H](O)[C@H]1O; test: (§6) Ratio of Kcat to Km of Activity of Rhodococcus sp. M777 Endoglycoceramidase 2 D314Y mutant
[12] = substrate: CCCCCCCCCCCCC/C=C/[C@@H](O)[C@@H](N)CO; test: as §6
[13] = substrate: CC(=O)N[C@H]1[C@H](O[C@@H]2[C@H](O[C@]3(C(=O)O)C[C@H](O)[C@@H](NC(C)=O)[C@H]([C@@H](O)[C@@H](O)CO)O3)[C@@H](O)[C@H](O[C@H]3[C@H](O)[C@@H](O)[C@@H](F)O[C@@H]3CO)O[C@@H]2CO)O[C@H](CO)[C@H](O)[C@@H]1O[C@@H]1O[C@H](CO)[C@H](O)[C@H](O)[C@H]1O; test: (§7) Activity of Rhodococcus sp. M777 Endoglycoceramidase 2 I276F mutant
[14] = substrate: CCCCCCCCCCCCC/C=C/[C@@H](O)[C@@H](N)CO; test: as §7
[15] = substrate: CC(=O)N[C@H]1[C@H](O[C@@H]2[C@H](O[C@]3(C(=O)O)C[C@H](O)[C@@H](NC(C)=O)[C@H]([C@@H](O)[C@@H](O)CO)O3)[C@@H](O)[C@H](O[C@H]3[C@H](O)[C@@H](O)[C@@H](F)O[C@@H]3CO)O[C@@H]2CO)O[C@H](CO)[C@H](O)[C@@H]1O[C@@H]1O[C@H](CO)[C@H](O)[C@H](O)[C@H]1O; test: (§8) Ratio of Kcat to Km of Activity of Rhodococcus sp. M777 Endoglycoceramidase 2 I276F mutant
[16] = substrate: CCCCCCCCCCCCC/C=C/[C@@H](O)[C@@H](N)CO; test: as §8
[17] = substrate: CCCCCCCCCCCCCC[C@@H](O)[C@@H](O)[C@@H](N)CO; test: Ratio of Kcat to Km of Activity of Rhodococcus sp. M777 Endoglycoceramidase 2 N148S mutant

B1: Endoglycoceramidase II (Rhodococcus sp), A0ACD6B832 I183F (protein)
chain: MRRTRLVSLIVTGSLVFGGGVAAAQSSLAASGSGSGSGTALTPSYLKDDDGRSLILRGFNTASSAKSAPDGMPQFTEADLAREYADMGTNFVRFLISWRSVEPAPGVYDQQYLDRVEDRVGWYAERGYKVMLDMHQDVYSGAITPEGNSGNGAGAIGNGAPAWATYMDGLPVEPQPRWELYYFQPGVMRAFDNFWNTTGKHPELVEHYAKAWRAVADRFADNDAVVAYDLMNEPFGGSLQGPAFEAGPLAAMYQRTTDAIRQVDQDTWVCVAPQAIGVNQGLPSGLTKIDDPRAGQQRIAYCPHLYPLPLDIGDGHEGLARTLTDVTIDAWRANTAHTARVLGDVPIILGEFGLDTTLPGARDYIERVYGTAREMGAGVSYWSSDPGPWGPYLPDGTQTLLVDTLNKPYPRAVAGTPTEWSSTSDRLQLTIEPDAAITAPTEIYLPEAGFPGDVHVEGADVVGWDRQSRLLTVRTPADSGNVTVTVTPAA
- Km [1]: 180 µM
- kcat [1]: 0.02 s⁻¹
- Km [2]: 180 µM
- kcat [2]: 0.09 s⁻¹
- kcat/Km [3]: 135 M⁻¹ s⁻¹
- kcat/Km [4]: 527 M⁻¹ s⁻¹

B2: Endoglycoceramidase II (Rhodococcus sp), A0ACD6B832 N334S (protein)
chain: B1 chain with F183I, N334S
- Km [5]: 700 µM
- kcat [5]: 0.13 s⁻¹
- Km [6]: 680 µM
- kcat [6]: 0.19 s⁻¹
- kcat/Km [7]: 186 M⁻¹ s⁻¹
- kcat/Km [8]: 279 M⁻¹ s⁻¹

B3: Endoglycoceramidase II (Rhodococcus sp), A0ACD6B832 D314Y (protein)
chain: B1 chain with F183I, D314Y
- Km [9]: 580 µM
- kcat [9]: 0.49 s⁻¹
- Km [10]: 1600 µM
- kcat [10]: 0.7 s⁻¹
- kcat/Km [11]: 845 M⁻¹ s⁻¹
- kcat/Km [12]: 443 M⁻¹ s⁻¹

B4: Endoglycoceramidase II (Rhodococcus sp), A0ACD6B832 I276F (protein)
chain: B1 chain with F183I, I276F
- Km [13]: 1300 µM
- kcat [13]: 0.11 s⁻¹
- Km [14]: 130 µM
- kcat [14]: 0.11 s⁻¹
- kcat/Km [15]: 86 M⁻¹ s⁻¹
- kcat/Km [16]: 846 M⁻¹ s⁻¹

B5: Endoglycoceramidase II (Rhodococcus sp), A0ACD6B832 N148S (protein)
chain: B1 chain with N148S, F183I
- kcat/Km [17]: 2.1 M⁻¹ s⁻¹
